Experimental findings from article PMC8780864, “Experimental Evidence of Intrinsic Disorder and Amyloid Formation by the Henipavirus W Proteins” (International Journal of Molecular Sciences, 2022) are described below.

Series [1] addresses Nipah virus (Malaysia strain) W protein, N-terminally hexahistidine tagged (from pDEST17OI/NiVW) (Nipah virus (Malaysia strain)) (UniProt P0C1C7). Description: SEC.
The target is the same in series [2]. As to the kind of experiment: MALDI-TOF MS of the intact protein.
Series [3] deals with the molecule itself. Description: MALDI-TOF MS of the intact protein.

By stoichiometry N is commonly meant a count of units in the complex or per binding partner. On to “Nipah virus (Malaysia strain) W protein, N-terminally hexahistidine tagged (from pDEST17OI/NiVW) (from UniProt P0C1C7 1-450) (natural protein)”, for which the stoichiometry N in series [1] and in series [2] was 2 in each case.

B1: Hendra virus W protein, N-terminally hexahistidine tagged (from pDEST17OI/HeVW) (natural protein)
chain: MDKLDLVNDGLDIIDFIQKNQKEIQKTYGRSSIQQPSTKDRTRAWEDFLQSTSGEHEQAEGGMPKNDGGTEGRNVEDLSSVTSSDGTIGQRVSNTRAWAEDPDDIQLDPMVTDVVYHDHGGECTGHGPSSSPERGWSYHMSGTHDGNVRAVPDTKVLPNAPKTTVPEEVREIDLIGLEDKFASAGLNPAAVPFVPKNQSTPTEEPPVIPEYYYGSGRRGDLSKSPPRGNVNLDSIKIYTSDDEDENQLEYEDEFAKSSSEVVIDTTPEDNDSINQEEVVGDPSDQGLEHPFPLGKFPEKEETPDVRRKDSLMQDSCKRGGVPKRLPMLSEEFECSGSDDPIIQELEREGSHPGGSLRLREPPQSSGNSRNQPDRQLKTGDAASPGGVQRPGTPMPKSRIMPIKKGAQTRSLNMLGRKTCLGRRVVQPGMFADYPPTKKARVLLRRMSN
notes: not shown: His6, N-terminal, kept
On to B1, for which the “stoichiometry N” value in series [3] turned out to be 2.
